Results from paper PMC4361793.

Columns and labels:
[1] = molecular target: mussel foot protein-3 slow (mfp-3s), hydrophobic variant (Mytilus californianus); assay: surface forces apparatus
[2] = molecular target: mussel foot protein-3 slow (mfp-3s), hydrophobic variant (Mytilus californianus); assay: QCM-D

cohesive energy Wc (tc ~ 2 min) [1] [mJ/m^2]	cohesive energy Wc of mfp-3s films with COL1A1 between them [1] [mJ/m^2]	adsorbed hydrated mass after adding mfp-3s to TiO2 pre-exposed to COL1A1 [2] [ng/cm^2]	total adsorbed hydrated mass of COL1A1/mfp-3s on TiO2 [2] [ng/cm^2]	Substance
5.4				mussel foot protein-3 slow (mfp-3s), hydrophobic variant (natural protein)
	7.2	209	445	rat-tail tropocollagen type-1 (COL1A1) (from UniProt P02454 152-1207; P02466 86-1125) (natural protein)
